Test [1] has as its target T1, Rab6B^Q72L, GTPase domain (residues 8-176), constitutively active mutant (mouse, UniProt P61294 8-176, Q72L).
T1 construct: Rab6B, mouse, GenBank NM_173781.4, GTPase domain residues 8-176, with Q72L; Used in analytical gel filtration and ITC; The methods tell of tag cleavage (HRV 3C) only for crystallization, so the Trx-His6 tag was probably still on; also called continuously active mutant Rab6B^Q72L; active form of Rab6B; source: E. coli BL21(DE3), purified (Ni2+-NTA, size-exclusion chromatography)
As to the kind of experiment: SEC; analytical gel filtration, Superdex 200 Increase 10/300 GL, 50 mM Tris pH 7.5, 100 mM NaCl, 2 mM MgCl2, 1 mM DTT. The conditions noted are these: both partners purified.

Test [2] addresses T1, Rab6B^Q72L, GTPase domain (residues …). As to the kind of experiment: ITC; MicroCal PEAQ-ITC, 25 °C, 50 mM Tris pH 7.5, 100 mM NaCl, 2 mM MgCl2; typically one protein (400 μM) in the syringe into its binding protein (40 μM) in the cell. The following applies: both partners purified. For orientation: In ITC the heat of successive injections is recorded.

For two molecules, binding result and Kd results are on record in paper PMC10267580, “Structural basis of ELKS/Rab6B interaction and its role in vesicle capturing enhanced by liquid-liquid phase separation” (The Journal of Biological Chemistry, 2023).

T1 sequence (P61294 8-176 Q72L): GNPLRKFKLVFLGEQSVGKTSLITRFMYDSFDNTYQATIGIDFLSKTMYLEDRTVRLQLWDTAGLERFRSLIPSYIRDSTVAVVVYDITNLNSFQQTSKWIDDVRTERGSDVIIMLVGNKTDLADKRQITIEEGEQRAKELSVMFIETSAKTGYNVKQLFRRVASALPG

B1: ELKS1 C-terminal coiled-coil region (residues 761-927) (domain or fragment, rat, UniProt Q811U3 761-927, looked up)
chain: QVKDQNKKVANLKHKEQVEKKKSAQMLEEARRREDSLSDSSQQLQVEELLMAMEKVKQELESMKAKLSSTQQSLAEKETHLTNLRAERRKHLEEVLEMKQEALLAAISEKDANIALLELSSSKKKTQEEVAALKREKDRLVQQLKQQTQNRMKLMADNYEDDHFRSS
notes: ELKS1 (Rab6IP2, CAST, ERC), rat, GenBank AY174115.1, residues 761-927; also called C-terminal fragment of ELKS1; source: E. coli BL21(DE3), purified (Ni2+-NTA, size-exclusion chromatography)
Consider B1, for which, in test [1], the binding result was “binds”.

B2: ELKS1_RBD, Rab-binding domain of ELKS1 (residues 849-922) (domain or fragment, rat, UniProt Q811U3 849-922, looked up)
chain: RKHLEEVLEMKQEALLAAISEKDANIALLELSSSKKKTQEEVAALKREKDRLVQQLKQQTQNRMKLMADNYEDD
notes: As used in analytical gel filtration and ITC; source: E. coli BL21(DE3), purified (Ni2+-NTA, size-exclusion chromatography)
What is called Kd is a measure of binding affinity in units of concentration. A high value points to lower affinity. With B2, the Kd in test [2] was roughly 8 µM.
